Experimental data published in article PMC8564726, “Heterodimerization of H3K9 histone methyltransferases G9a and GLP activates methyl reading and writing capabilities” (The Journal of Biological Chemistry, 2021).
Entries after “also recorded” stand apart in the source; their conditions may differ.

What was measured:
H3_1–20 peptide = experiment: H3 tail peptide methylation kinetics (multiple turnover); assay type: biochemical; settings: Michaelis–Menten, 9 μM 3H-SAM + 1000 μM cold SAM, 0.4 to 0.8 μM enzyme, pH 8, duplicates, 95% CI: G9a-G9a 24.6-34.6, GLP-GLP 9.5-15.5, G9a-GLP 26.0-34.5, G9aS-GLP 20.5-28.3, listed as G9a
Procedure: Substrate peptides or nucleosomes were mixed in a solution containing 9 μM tritiated S-Adenosyl Methionine (SAM, PerkinElmer) cofactor, and reactions were initiated upon addition of 0.4 to 0.8 μM enzyme. Peptide reactions were supplemented with 1000 μM cold SAM to fully saturate the SAM-binding pocket (Fig. S3). Due to signal limitations, nucleosome reactions were not supplemented with SAM (see Supporting methods). Reactions were run in 100 mM Tris pH 8, 100 mM KCl, 1 mM MgCl2, 20 μM ZnSO4, 10 mM BME and quenched with laemmli buffer. Peptide reactions were performed as described ([11]). Nucleosome methylation reactions were read out via autoradiography as described ([11]), except that proteins were separated on an 18% SDS PAGE gel.
All methylation reactions (except Fig. S4A) were performed under Multiple Turnover conditions ([25]). To determine initial rates, methylation time courses were traced at various concentrations of H3K9-containing substrate while keeping the concentration of SAM and enzyme constant. Plots of initial rate versus concentration H3K9 substrate measured in duplicate or triplicate were fit to V = Vmax∗[S]/(KM + [S]) using Prism software to extract KM and kcat (or kobs) values as well as the 95% confidence interval bounds of the fit. See Supporting methods for special considerations for nucleosome kinetics.

[1] = tested on: H3K9me1 monomethylated mononucleosomes; experiment: Fluorescence polarization binding to H3K9me1 mononucleosome
Description: (§1) Histone proteins and nucleosomes were purified as described ([11], [26]) with modifications (see Supporting methods). For fluorescence polarization, nucleosomes were reconstituted with a 5ʹ fluoresceinated DNA template. H3K9 dimethylation was installed via Methyl-Lysine Analog (MLA) technology as described ([10], [26]). K9 MLA-monomethylated H3 was purchased from Active Motif. H3K27A was introduced by site-directed mutagenesis and purified as described ([26]).
(§2) Polarization assays with fluoresceinated H3_1–20 K9me1 or K9me2 peptides, 147 bp 601 DNA template, and core nucleosomes were performed and Kd values estimated as described ([11]) with the following modifications: The reaction buffer was 100 mM Tris pH 8, 100 mM KCl, 1 mM MgCl2, 20 μM ZnSO4, 10 mM BME, 0.1% NP-40. The concentration of peptides and nucleosomes was 150 nM and 200 nM for DNA. Polarization measurements were conducted on a Biotek Cytation 5 (peptide and nucleosome) or Molecular Devices Spectramax (DNA) plate reader with low-volume plates (Corning) in either 10 μl (peptide, nucleosome) or 40 μl (DNA) total volume.

[2] = tested on: H3K9me2 dimethylated mononucleosomes; experiment: Fluorescence polarization binding to H3K9me2 mononucleosome
Description: as §1, §2

H3_1–20 K9me2 peptide = experiment: Fluorescence polarization binding to H3K9me2 peptide; settings: listed as G9a
Procedure: as §2

H3_1–20 K9me1 peptide = experiment: Fluorescence polarization binding to H3K9me1 peptide; settings: listed as G9a
Procedure: as §2

[3] = molecular target: unmethylated (H3K9me0) mononucleosomes; experiment: Fluorescence polarization binding to unmethylated mononucleosome; settings: 147 bp 601 DNA 5ʹ fluorescein-labeled nucleosomes, 150 nM, pH 8, 100 mM KCl, 0.1% NP-40, 95% CI (μM): G9a 6.4-8.6, G9a-GLP 5.6-7.6, GLP-GLP 17.4-41.5, read-out: Kd, unmethylated (me0) mononucleosome
Description: as §1, §2

B1: G9a-G9a: homodimer of G9a truncated to the C-terminal ANK and SET domains (ANK-SET) (protein)
chain: MRGLPRGRGLMRARGRGRAAPTGGRGRGRGGAHRGRGRPRSLLSLPRAQASWAPQLPAGLTGPPVPCLPSQGEAPAEMGALLLEKEPRGAAERVHSSLGDTPQSEETLPKANPDSLEPAGPSSPASVTVTVGDEGADTPVGAASLIGDEPESLEGDGGRIVLGHATKSFPSSPSKGGACPSRAKMSMTGAGKSPPSVQSLAMRLLSMPGAQGAATAGPEPSPATTAAQEGQPKVHRARKTMSKPSNGQPPIPEKRPPEVQHFRMSDDMHLGKVTSDVAKRRKLNSGSLSEDLGSAGGSGDIILEKGEPRPLEEWETVVGDDFSLYYDAYSVDERVDSDSKSEVEALAEQLSEEEEEEEEEEEEEEEEEEEEEEEEEDEESGNQSDRSGSSGRRKAKKKWRKDSPWVKPSRKRRKREPPRAKEPRGVNGVGSSGPSEYMEVPLGSLELPSEGTLSPNHAGVSNDTSSLETERGFEELPLCSCRMEAPKIDRISERAGHKCMATESVDGELLGCNAAILKRETMRPSSRVALMVLCEAHRARMVKHHCCPGCGYFCTAGTFLECHPDFRVAHRFHKACVSQLNGMVFCPHCGEDASEAQEVTIPRGDGGTPPIGTAAPALPPLAHDAPGRADTSQPSARMRGHGEPRRPPCDPLADTIDSSGPSLTLPNGGCLSAVGLPPGPGREALEKALVIQESERRKKLRFHPRQLYLSVKQGELQKVILMLLDNLDPNFQSDQQSKRTPLHAAAQKGSVEICHVLLQAGANINAVDKQQRTPLMEAVVNNHLEVARYMVQLGGCVYSKEEDGSTCLHHAAKIGNLEMVSLLLSTGQVDVNAQDSGGWTPIIWAAEHKHIDVIRMLLTRGADVTLTDNEENICLHWASFTGSAAIAEVLLNAQCDLHAVNYHGDTPLHIAARESYHDCVLLFLSRGANPELRNKEGDTAWDLTPERSDVWFALQLNRKLRLGVGNRAVRTEKIICRDVARGYENVPIPCVNGVDGEPCPEDYKYISENCETSTMNIDRNITHLQHCTCVDDCSSSNCLCGQLSIRCWYDKDGRLLQEFNKIEPPLIFECNQACSCWRSCKNRVVQSGIKVRLQLYRTAKMGWGVRALQTIPQGTFICEYVGELISDAEADVREDDSYLFDLDNKDGEVYCIDARYYGNISRFINHLCDPNIIPVRVFMLHQDLRFPRIAFFSSRDIRTGEELGFDYGDRFWDIKSKYFTCQCGSEKCKHSAEAIALEQSRLARLDPHPELLPDLSSLPPINT
kcat, H3_1–20 peptide (H3_1–20 peptide): ~33 min⁻¹
binding to H3K9me1 nucleosomes, in words [1]: decreases compared with unmethylated nucleosomes
binding to H3K9me2 nucleosomes, in words [2]: decreases compared with unmethylated nucleosomes
affinity for H3K9me2 peptide, in words (H3_1–20 K9me2 peptide): no discernable affinity for me1 or me2 peptides; also recorded: does not recognize H3K9me1/2 peptides
affinity for H3K9me1 peptide, in words (H3_1–20 K9me1 peptide): no discernable affinity for me1 or me2 peptides; also recorded: does not recognize H3K9me1/2 peptides
Kd [3]: 6 to 7 µM
